Results as given in PMC10251734.

Molecular target: SARS-CoV-2 Wuhan-Hu-1 spike, soluble trimeric, residues 1-1204, 6 proline mutations (SARS-CoV-2) (UniProt P0DTC2)
Assay: SEC

Substance: SARS-CoV-2 Wuhan-Hu-1 spike, soluble trimeric, residues 1-1204, 6 proline mutations (from UniProt P0DTC2 14-1204) (domain or fragment)
- stoichiometry N: 3
